Molecular target: recombinant stabilized complete spike protein (SARS-CoV-2), pre-fusion stabilised (SARS-CoV-2) (UniProt P0DTC2)
Assay: affinity purification with mass spectrometry

human serum albumin (from UniProt P02768 25-609) (natural protein)
mean MALDI-ToF peak intensity of eluted HSA: 1920 AU | percent of samples in which HSA was detected in the eluate: 72%

— publication doi:10.1101/2021.06.14.21258871
